Assay results from PMC5298935 (2016).
Square brackets hold non-standard residues; d marks the D form. Ends that are not written are not given here. pS = N[C@@H](COP(=O)(O)O)C(=O)O

T1: IRAK1 p131 peptide 126-135 (Homo sapiens, UniProt P51617)
T1 chain: EAEAW[pS]PRKL

T2: IRAK1 p163 peptide 157-180 (Homo sapiens, UniProt P51617, phospho-Ser163)
T2 chain: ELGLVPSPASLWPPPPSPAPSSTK

T3: IRAK1 p144 peptide 140-149 (Homo sapiens, UniProt P51617)
T3 chain: STFL[pS]PAFPG

T4: IRAK1 p163 peptide 157-180 (Homo sapiens, UniProt P51617)
T4 chain: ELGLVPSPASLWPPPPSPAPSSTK

B1: Pin1 PPIase domain 46-163 (protein)
chain: KNGQGEPARVRCSHLLVKHSQSRRPSSWRQEKITRTKEEALELINGYIQKIKSGEEDFESLASQFSDCSSAKARGDLGAFSRGQMQKPFEDASFALRTGEMSGPVFTDSGIHIILRTE

What was measured:
Experiment in all cases: NMR titration
[1] = target: T1, IRAK1 p131 peptide 126-135
[2] = target: T2, IRAK1 p163 peptide 157-180
[3] = target: T3, IRAK1 p144 peptide 140-149
[4] = target: T4, IRAK1 p163 peptide 157-180

| Binder | Kd [1] | Kd [2] | Kd [3] | Kd [4] |
| --- | --- | --- | --- | --- |
| B1 | 161 µM | 230 µM | 689 µM | – |
| MADEEKLPPGWEKRMSRSSGRVYYFNHITNASQWERPSGNSSSGGKNGQG (not fully specified; phospho-Ser163) [Pin1 WW domain 1-50] | – | – | – | 385 µM |
